Reference: publication PMC9945957 (Proceedings of the National Academy of Sciences of the …, 2023)

T1: Shr^H1H2 (Shr residues S26 to Q285, both HIDs) (Streptococcus pyogenes, UniProt Q99YA0 26-285)
T1 sequence: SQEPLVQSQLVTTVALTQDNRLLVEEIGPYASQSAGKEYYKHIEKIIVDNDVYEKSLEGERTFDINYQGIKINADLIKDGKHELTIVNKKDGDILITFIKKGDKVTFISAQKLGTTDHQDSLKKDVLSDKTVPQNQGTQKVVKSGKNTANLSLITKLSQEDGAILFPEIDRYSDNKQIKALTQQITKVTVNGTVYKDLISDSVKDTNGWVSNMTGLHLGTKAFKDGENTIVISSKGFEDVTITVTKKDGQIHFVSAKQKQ

B1: human hemoglobin, heme-loaded (holo-Hb) (complex)
chain 1: not shown
chain 2: not shown
B2: Shr^H2 M238A (domain or fragment)
chain: NLSLITKLSQEDGAILFPEIDRYSDNKQIKALTQQITKVTVNGTVYKDLISDSVKDTNGWVSNATGLHLGTKAFKDGENTIVISSKGFEDVTITVTKKDGQIHFVSAKQKQ

Assays:
[1] = target: T1, Shr^H1H2 (Shr residues S26 to Q285, …); test: SEC-MALS + other: SEC-SAXS
[2] = target: B1; test: NMR titration

Binder | stoichiometry N [1] [Shr^H1H2 per Hb tetramer] | binding result [2]
B1 | 2 | –
B2 | – | binds
